Three sequences from patent US20180095078 can be followed below.

The target of data set [1] is Hepatitis B surface antigen (HBsAg) (Hepatitis B virus) (UniProt P03138). Put plainly: pulldown. The conditions noted are these: magnetic bead pulldown with q-PCR; BD buffer, room temperature.
Data set [2] concerns the target HCV NS3 protein (Hepatitis C virus) (UniProt P27958). Put plainly: pulldown. The conditions noted are these: magnetic bead pulldown with q-PCR; BD buffer, room temperature.

The Kd is the equilibrium constant for the complex coming apart.

HCV NS3 protein (Hepatitis C virus), sequence (P27958 1027-1657): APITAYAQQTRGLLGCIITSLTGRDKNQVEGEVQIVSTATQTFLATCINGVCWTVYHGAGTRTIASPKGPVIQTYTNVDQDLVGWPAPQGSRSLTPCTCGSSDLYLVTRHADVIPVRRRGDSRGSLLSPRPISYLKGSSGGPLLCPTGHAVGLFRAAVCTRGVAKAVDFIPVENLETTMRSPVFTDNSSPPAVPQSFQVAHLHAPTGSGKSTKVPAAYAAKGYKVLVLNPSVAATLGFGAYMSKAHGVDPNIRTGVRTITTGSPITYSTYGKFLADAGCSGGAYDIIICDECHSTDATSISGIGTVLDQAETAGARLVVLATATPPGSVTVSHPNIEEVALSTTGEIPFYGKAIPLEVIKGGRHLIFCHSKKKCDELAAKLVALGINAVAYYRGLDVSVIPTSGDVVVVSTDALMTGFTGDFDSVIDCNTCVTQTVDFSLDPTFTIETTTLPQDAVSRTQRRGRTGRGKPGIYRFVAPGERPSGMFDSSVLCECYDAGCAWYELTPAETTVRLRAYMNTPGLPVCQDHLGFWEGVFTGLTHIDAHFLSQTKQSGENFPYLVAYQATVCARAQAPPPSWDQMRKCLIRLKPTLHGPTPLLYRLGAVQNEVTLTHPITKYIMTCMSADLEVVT

Sequence “AGCAGCACAGAGGTCCCAACCGGAATCTGCACCTCGCGTGCTACCGTGAA [K2-4]” registered a dissociation constant (Kd) in data set [1] of 31.4 nM.
As for “AGCAGCACAGAGGTCCCCATGTCCACCTTTCTGTGGCGTGCTACCGTGAA [K3-1]”, the Kd in data set [2] is 15.9 nM.
Consider “AGCAGCACAGAGGTCCTGCATCACGAAGCCTGGCAGCGTGCTACCGTGAA [MP-1]”, for which the Kd in data set [1] came out at 28.3 nM; in data set [2], 23.3 nM.
